Source: patent US20150299314A1 (TORAY INDUSTRIES, published 2015)
Each block holds one binder with its values, some of them ahead of it.

Legend:
[1] = molecular target: T1, polypeptide set forth in SEQ ID NO: 430 (human); experiment: ELISA on 93 immobilized synthetic peptides of human CAPRIN-1, purified antibody 0.1 ug/mL
T1 peptide: ATQVPLVSSTSEGYTA
Method: Candidate peptides (93 peptides) each consisting of 12 to 16 amino acids of the amino acid sequence of the human CAPRIN-1 protein were synthesized and were each dissolved at a concentration of 1 mg/mL in DMSO. Each peptide was dissolved at a concentration of 30 μg/mL in a 0.1 M sodium carbonate buffer (pH 9.6). The solution was added to a 96-well plate (manufactured by Nunc, Product No. 436006) at 100 μL per well, followed by being left to stand at 4° C. overnight. The solution was removed, and 200 μL of 10 mM ethanolamine/0.1 M sodium carbonate buffer (pH 9.6) was added to each well, followed by being left to stand at room temperature for 1 hour. The solution was removed, and each well was washed with PBS containing 0.5% Tween 20 (PBST) twice to prepare a peptide-immobilized plate. For confirmation, this plate was also provided with a well to which the CAPRIN-1 protein was immobilized in accordance with the method described above. Rabbit anti-CAPRIN-1 monoclonal antibody #1 purified to a concentration of 0.1 ug/mL by a usual method was added to the plate at an amount of 50 μL per well, followed by shaking at room temperature for 1 hour. The solution was removed, and each well was washed with PBST three times. […] The absorbance was measured at 450 nm and 595 nm with an absorption spectrometer. […]

[2] = molecular target: T1, polypeptide set forth in SEQ ID NO: 430; experiment: ELISA as in Example 13(1), purified antibody
[3] = molecular target: T2, peptide set forth in SEQ ID NO: 267 (human); experiment: ELISA on immobilized synthetic CAPRIN-1 peptides, culture supernatant
T2 peptide: QQPQAASPSVPE

[4] = molecular target: T3, polypeptide set forth in SEQ ID NO: 266 (human); experiment: as above
T3 construct: Identified from ELISA on 93 synthetic peptides of 12 to 16 amino acids of human CAPRIN-1
T3 peptide: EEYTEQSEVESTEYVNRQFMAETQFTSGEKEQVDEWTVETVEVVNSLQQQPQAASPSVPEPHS

[5] = molecular target: T4, CAPRIN-1 protein expressed on the cell surface of human cancer cells (human, UniProt Q14444 2-709); experiment: cell-based or functional assay
T4 sequence (looked up): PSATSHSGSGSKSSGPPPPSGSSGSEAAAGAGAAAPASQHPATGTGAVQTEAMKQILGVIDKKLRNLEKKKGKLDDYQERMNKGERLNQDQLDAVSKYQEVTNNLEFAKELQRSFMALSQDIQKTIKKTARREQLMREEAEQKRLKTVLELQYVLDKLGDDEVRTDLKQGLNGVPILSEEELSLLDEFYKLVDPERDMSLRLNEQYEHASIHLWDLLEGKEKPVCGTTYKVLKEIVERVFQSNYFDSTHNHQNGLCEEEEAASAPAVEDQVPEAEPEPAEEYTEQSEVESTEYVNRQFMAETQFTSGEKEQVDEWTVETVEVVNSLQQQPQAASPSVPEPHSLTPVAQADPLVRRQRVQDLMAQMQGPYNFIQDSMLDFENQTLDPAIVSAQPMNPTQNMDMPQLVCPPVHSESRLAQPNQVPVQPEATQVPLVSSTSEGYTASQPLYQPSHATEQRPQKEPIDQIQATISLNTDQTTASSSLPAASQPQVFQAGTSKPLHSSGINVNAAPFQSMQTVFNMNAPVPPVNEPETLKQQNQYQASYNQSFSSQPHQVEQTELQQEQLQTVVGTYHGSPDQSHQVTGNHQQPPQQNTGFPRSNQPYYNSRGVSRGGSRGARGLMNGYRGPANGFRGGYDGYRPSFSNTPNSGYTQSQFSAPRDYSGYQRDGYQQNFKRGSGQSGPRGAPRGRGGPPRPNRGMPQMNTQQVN

[6] = molecular target: T5, polypeptide comprising the amino acid sequence set forth in SEQ ID NO: 269 (human); experiment: ELISA on immobilized synthetic CAPRIN-1 peptides, culture supernatant
T5 peptide: PPVNEPETLKQQNQYQAS

[7] = molecular target: T6, peptide set forth in SEQ ID NO: 268 (human); experiment: as above
T6 peptide: FTSGEKEQVDEW

[8] = molecular target: T4, CAPRIN-1 protein expressed on the cell …; experiment: flow cytometry, TGBC14TKB cells, culture supernatant, isotype control antibody as control
Method: Subsequently, a gallbladder cell line TGBC14TKB, which was confirmed to express a CAPRIN-1 gene, was investigated for whether or not a CAPRIN-1 protein is expressed on the surfaces of these cells. 1×10⁶ cells of TGBC14TKB were centrifuged with a 1.5-mL micro centrifugation tube. To the cells was added the culture supernatant (100 μL) containing any of anti-CAPRIN-1 mouse monoclonal antibodies #1 to #22 reacting to cancer cell surface produced in Example 4 and anti-CAPRIN-1 mouse-chicken chimeric antibodies #1 to #3 produced in the above (2), followed by being left to stand on ice for 1 hour. After washing with PBS, the cells were suspended in a FITC-labeled goat anti-mouse IgG antibody (manufactured by life technologies) diluted by 500-fold with PBS containing 0.1% FBS, followed by being left to stand on ice for 1 hour. After washing with PBS, the fluorescence intensity was measured with FACS Calibur available from Becton, Dickinson and Company. Separately, as a control, the same procedure as in above was performed using an iso-type control antibody, instead of the culture supernatants containing the anti-CAPRIN-1 mouse monoclonal antibodies #1 to #22 and the mouse-chicken chimeric antibodies #1 to #3. As a result, the fluorescence intensity in the cells to which any of the monoclonal antibodies #1 to #22 and the mouse-chicken chimeric antibodies #1 to #3 was added was 20% or more higher than that in the control in every case. Specifically, in the case of using mouse-chicken chimeric antibody #1, the fluorescence intensity was enhanced by 200% or more. […] The rate of increase in the fluorescence intensity is represented by the rate of increase in the mean fluorescence intensity (MFI value) in each cell and is calculated by the following calculation formula: […]

[9] = molecular target: T4, CAPRIN-1 protein expressed on the cell …; experiment: flow cytometry, TGBC14TKB cells, antibody 20 ug/mL, secondary antibody only as control
Method: (§1) A human gallbladder cancer cell line TGBC14TKB was investigated whether or not a CAPRIN-1 protein is expressed on the cell surface. 5×10⁵ cells of the gallbladder cancer cell line were centrifuged with a 1.5-mL micro centrifugation tube. The cells were subjected to reaction with each mouse anti-CAPRIN-1 antibody at a final concentration of 20 μg/mL, followed by being left to stand on ice for 1 hour. After washing with PBS, the cells were reacted with a 100-fold diluted Alexa488-labeled goat anti-mouse IgG antibody (manufactured by life technologies), followed by being left to stand on ice for […]. After washing with PBS, the fluorescence intensity was measured with FACS Calibur available from Becton, Dickinson and Company. As a negative control, only the secondary antibody was used in the reaction.
as §1, with “cell surface using mouse anti-CAPRIN-1 monoclonal antibodies #30 to #36.” for “cell surface.”, “of TGBC14TKB” for “of the gallbladder cancer cell line”, “each of” for “each”, “anti-CAPRIN-1 antibodies #30 to #36” for “anti-CAPRIN-1 antibody”, “Company. Separately, the cells were subjected to reaction with” for “Company. As a negative control,”, “antibody as a negative control.” for “antibody was used in the reaction.”

[10] = molecular target: T7, polypeptide set forth in SEQ ID NO: 431 (human); experiment: ELISA on immobilized synthetic CAPRIN-1 peptides, culture supernatant
T7 peptide: VERVFQSNYFDSTHNH

B1: rabbit anti-CAPRIN-1 monoclonal antibody #1 (antibody, V domains shown)
VH: QSLEESGGDLVKPGASLTLTCTASGFSFSGSYYMSWVRQAPGKGLEWIAYIYIGDGVTAYANWAKGRFTISKASSTTVTLQMTSLTAADTATYFCARGNKLWGPGTLVTVSS
VL: DVVMTQTPASVEAAVGGTVTIKCQASQSISSYLAWYQQKPGQPPKRLIYDASNLDSGVPSRFKGSGSGTDFTITISDLECADAATYYCQCTAVSSATIYGNAFGGGTEVVVK
notes: rabbit hybridoma antibody
- binding result [1]: binds

B2: human-rabbit chimeric anti-CAPRIN-1 antibody #1 (antibody, V domains shown)
VH: QSLEESGGDLVKPGASLTLTCTASGFSFSGSYYMSWVRQAPGKGLEWIAYIYIGDGVTAYANWAKGRFTISKASSTTVTLQMTSLTAADTATYFCARGNKLWGPGTLVTVSS
VL: DVVMTQTPASVEAAVGGTVTIKCQASQSISSYLAWYQQKPGQPPKRLIYDASNLDSGVPSRFKGSGSGTDFTITISDLECADAATYYCQCTAVSSATIYGNAFGGGTEVVVK
notes: also called human-rabbit chimeric anti-CAPRIN-1 monoclonal antibody #1
- binding result [2]: binds

B3: human-chicken chimeric antibody #1 (antibody, human IgG1, kappa, V domains shown)
VH: AVTLDESGGGLQMSRGGLSLVCKASGFDFSSYQMNWIRQAPGKGLEFVAAINKFGNSTGHGAAVKGRVTISRDNGQSTVRLQLNNLRAEDTAIYFCTKHAYGYCGSGTWCAAGEIDAWGHGTEVIVSS
VL: QAASTQPSSVSANPGETVEITCSGGGSYSYGWFQQKSPGSAPVTVIYYNNKRPSDIPSRFSGSKSGSTGTLTITGVQADDEAVYYCGSGDSTDTAVFGAGTTLTVLG
notes: also called human-chicken chimeric monoclonal antibody #1
- binding result [3]: binds
- binding result [4]: binds
- cytotoxicity (ADCC, 51Cr release) on TGBC14TKB, human NK cells [5]: 20%

B4: human-chicken chimeric antibody #3 (antibody, human IgG1, kappa, V domains shown)
VH: AVTLDESGGGLQTPGGALSLVCKASGFTFSGYDMLWVRQAPGKGLEWVAGIGSTGGGTDYGAAVKGRATISRDNGQSTVRLQLNNLRAEDTATYYCAKVAGGCNSGYCRDSPGSIDAWGHGTEVIVSA
VL: AVTQQPASVSANPGETVKITCSGGGSRNYYGWYQQKSPGSVPVTVIYYDDQRPSNIPSRFSGALSGSTSTLTITGVQADDEAVYFCGSADSNTYEGSFGAGTTLTVLT
notes: Produced 'similarly' to human-chicken chimeric antibody #1 from chicken monoclonal antibody #3; also called human-chicken chimeric monoclonal antibody #3
- binding result [6]: binds
- cytotoxicity (ADCC, 51Cr release) on TGBC14TKB, human NK cells [5]: ≥ 15%

B5: mouse monoclonal antibody #5 (antibody, V domains shown)
VH: DAELVKPGASVKISCKASGYTFTDHSIHWVQQKPEQGLEWIGYISPGNGNIKYNEKFKGKATLTADKSSSTAYMQLNSLTSEDSAVYFCKRSLGRGGPYYFDYWGQGTTVTVSS
VL: DIVLTQAAPSLPVTPGESVSISCRSSKSLLHSNGNTYLYWFLQRPGQSPQLLIYRMSNLASGVPDRFSGSGSGTAFTLRISRVEAEDVGVYYCMQHREYPVTFGSGPN
notes: mouse hybridoma antibody; also called anti-CAPRIN-1 mouse monoclonal antibody #5; anti-CAPRIN-1 monoclonal antibody #5
- binding result [4]: binds
- binding result [7]: binds
- rate of increase in mean fluorescence intensity over control [8]: ≥ 20%
- cytotoxicity (ADCC, 51Cr release) on TGBC14TKB, human NK cells [5]: ≥ 15%

The next lines start with results.

- binding result [3]: binds
- binding result [4]: binds
- rate of increase in mean fluorescence intensity over control [8]: ≥ 20%
B6: mouse monoclonal antibody #4 (antibody, V domains shown)
VH: GAELVRSGASVKMSCKASGYSFTDYNMYWVKQTPGQGLEWIGYIYPGNGGTNYNQKFKGKATLTADTSSSTAYMQISSLTSEDSAVYFCARDYDDGGYAMDYWGQGTTVTVSS
VL: DIQMTQSPASLSASVGETVTITCRASGNIHNYLTWYQQKQGKSPQLLVYNAKTLADGVPSRFSGSGSGTQYSLKINRLQPEDFGSYYCQHFWNIPWTFGGGTKLNSR
notes: mouse hybridoma antibody; also called anti-CAPRIN-1 mouse monoclonal antibody #4; anti-CAPRIN-1 monoclonal antibody #4
- cytotoxicity (ADCC, 51Cr release) on TGBC14TKB, human NK cells [5]: ≥ 15%

- increase in fluorescence intensity over control [9]: ≥ 35%
- binding result [10]: binds
B7: mouse anti-CAPRIN-1 antibody #34 (antibody, V domains shown)
VH: GAELVRPGTSVKVSCKASVYAFTNYLIEWVKQRPGQGLEWIGVINPKSGGTKYNEKFRGKATLTADKSSSTAYMQLSSLTSGDSAVYFCAITGTDYWGQGTTLTVSS
VL: QGTRCDIQMTQTTSSLSASLGDRVTISCSASQGINNYLNWYQQKPDGTVKLLIYYTSSLRSGVPSRFSGSGSGTDYSLTISNLEPEDVATYYCQQYSKLPRTFGGGTKLEIKR
notes: mouse hybridoma antibody; also called mouse anti-CAPRIN-1 monoclonal antibody #34; mouse anti-CAPRN-1 antibody #34
